Measured values as given in publication doi:10.1101/304022 (bioRxiv, 2018).
Residue numbers refer to the chain shown, from its start.

Target: the molecule itself
Test: dynamic light scattering

B1: STIM1 23-213 (luminal domain of human stromal interaction molecule-1), wild type, unmodified (1 mM DTT) (domain or fragment, UniProt Q13586-1 23-213, looked up)
chain: LSHSHSEKATGTSSGANSEESTAAEFCRIDKPLCHSEDEKLSFEAVRNIHKLMDDDANGDVDVEESDEFLREDLNYHDPTVKHSTFHGEDKLISVEDLWKAWKSSEVYNWTVDEVVQWLITYVELPQYEETFRKLQLSGHAMPRLAVTNTTMTGTVLKMTDRSHRQKLQLKALDTVLFGPPLLTRHNHLKD
B1: binds.

B2: Cys49Ser/Cys56Ser double mutant STIM1 23-213 (domain or fragment, human, UniProt Q13586-1 23-213, looked up)
chain: B1 chain with C27S, C34S
B2: binds.
